Reference: patent publication US20170174740A1

B1: Kv2.1 (wild-type voltage-dependent delayed-rectifier K+ channel, expressed in CHO cells) (protein)
chain: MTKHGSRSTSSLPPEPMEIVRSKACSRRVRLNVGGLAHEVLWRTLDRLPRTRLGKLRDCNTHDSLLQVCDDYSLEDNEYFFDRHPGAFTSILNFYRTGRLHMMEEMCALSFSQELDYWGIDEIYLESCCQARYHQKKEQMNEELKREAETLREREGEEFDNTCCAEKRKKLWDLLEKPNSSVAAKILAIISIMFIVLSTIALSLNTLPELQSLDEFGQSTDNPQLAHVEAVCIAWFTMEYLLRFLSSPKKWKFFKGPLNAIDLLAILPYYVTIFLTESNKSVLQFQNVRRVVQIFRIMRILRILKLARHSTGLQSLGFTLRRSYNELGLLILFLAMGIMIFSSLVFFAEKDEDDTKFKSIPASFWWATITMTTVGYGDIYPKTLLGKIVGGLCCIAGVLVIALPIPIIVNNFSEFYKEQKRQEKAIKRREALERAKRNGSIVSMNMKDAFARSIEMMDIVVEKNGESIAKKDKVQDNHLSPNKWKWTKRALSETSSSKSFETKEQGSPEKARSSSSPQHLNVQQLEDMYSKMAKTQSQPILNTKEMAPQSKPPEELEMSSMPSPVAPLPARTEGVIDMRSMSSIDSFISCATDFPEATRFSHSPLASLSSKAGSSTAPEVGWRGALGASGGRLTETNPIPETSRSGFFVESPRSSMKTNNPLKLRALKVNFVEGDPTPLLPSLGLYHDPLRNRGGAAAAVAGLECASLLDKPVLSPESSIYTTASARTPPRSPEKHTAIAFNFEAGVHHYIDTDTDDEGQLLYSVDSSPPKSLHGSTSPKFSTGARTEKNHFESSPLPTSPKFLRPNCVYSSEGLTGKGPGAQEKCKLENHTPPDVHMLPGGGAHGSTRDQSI
B2: C1a441-472 (overlapping middle segment of C1a) (peptide)
peptide: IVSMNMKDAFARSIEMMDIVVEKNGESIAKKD

What was measured:
[1] = target: syntaxin (SNARE protein; expressed from a plasmid in CHO cells for co-immunoprecipitation); assay: co-immunoprecipitation with anti-syntaxin from CHO cells expressing syntaxin and Kv2.1, no C1a segment; mean±SEM, n=3
syntaxin (SNARE protein; expressed from a plasmid in CHO cells for co-immunoprecipitation), sequence (Q16623 whole entry): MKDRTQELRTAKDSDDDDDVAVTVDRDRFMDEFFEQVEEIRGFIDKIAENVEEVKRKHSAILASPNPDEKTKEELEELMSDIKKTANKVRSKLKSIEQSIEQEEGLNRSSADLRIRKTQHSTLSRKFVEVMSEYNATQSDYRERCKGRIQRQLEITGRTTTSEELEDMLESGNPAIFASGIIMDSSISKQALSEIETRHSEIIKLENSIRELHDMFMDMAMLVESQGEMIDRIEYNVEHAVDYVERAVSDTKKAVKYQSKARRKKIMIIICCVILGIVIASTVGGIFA

[2] = target: syntaxin (SNARE protein; expressed from a plasmid in CHO cells for co-immunoprecipitation); assay: co-immunoprecipitation with anti-syntaxin from CHO cells expressing syntaxin and Kv2.1 with C1a441-472 co-expressed as competitor; the ratio is Kv2.1 pulled down with syntaxin; mean±SEM, n=3

| Binder | ratio of Kv2.1 to syntaxin immunoblots [1] | ratio of Kv2.1 to syntaxin immunoblots [2] |
| --- | --- | --- |
| B1 | 0.24 |  |
| B2 |  | 0.25 |
